Where a chain is given by its changes, count along the chain named. Read-outs that look alike come from different tables or passages of the source.
B1: 3# (antibody, human IgG1, kappa, V domains shown)
VH: QVQLQESGPGLVRPSQTLSLTCTVSGYSITSDHAWSWVRQPPGRGLEWIGYISYSGITTYNPSLKSRVTMLRDTSKNQFSLRLSSVTAADTAVYYCARSLARATAMDYWGQGSLVTVSS
VL: DIQMTQSPSSLSASVGDRVTITCRASQDISSYLNWYQQKPGKAPKLLIYYTSRLHSGVPSRFSGSGSGTDFTFTISSLQPEDIATYYCQQGNTLPYTFGQGTKVEIKR
notes: also called Sample # 3
B2: 11# (antibody, human IgG1, kappa, V domains shown)
VH: B1 VH with Y51F
VL: B1 VL
notes: also called Sample # 11
B3: 26# (antibody, human IgG1, kappa, V domains shown)
VH: B1 VH with I57M, A103T
VL: B1 VL
notes: also called Sample # 26
B4: 243# (antibody, human IgG1, kappa, V domains shown)
VH: B1 VH with I57M, T58I, S99C, A103T, M106I, Y108F
VL: B1 VL with Q89G, T93R
B5: 232# (antibody, human IgG1, kappa, V domains shown)
VH: B1 VH with I57M, T58I, S99T, A103M
VL: B1 VL
B6: 240# (antibody, human IgG1, kappa, V domains shown)
VH: B1 VH with I57M, T58I
VL: B1 VL with Q89G, T93R
notes: also called Sample # 240
B7: 238# (antibody, human IgG1, kappa, V domains shown)
VH: B1 VH with I57M, T58I, S99C, A103T
VL: B1 VL with Q89G, T93R
B8: 9# (antibody, human IgG1, kappa, V domains shown)
VH: B1 VH with T58I, P62A, S99C, A103T
VL: B1 VL
notes: also called Sample # 9
B9: 13# (antibody, human IgG1, kappa, V domains shown)
VH: B1 VH with Y51F, S99C, A103T
VL: B1 VL
notes: also called Sample # 13
B10: 7# (antibody, human IgG1, kappa, V domains shown)
VH: B1 VH with A103T, M106I
VL: B1 VL
notes: also called Sample # 7
B11: 242# (antibody, human IgG1, kappa, V domains shown)
VH: B1 VH with I57M, T58I, A103M, M106I, Y108F
VL: B1 VL with Q89G, T93R
notes: also called Sample # 242
B12: 235# (antibody, human IgG1, kappa, V domains shown)
VH: B1 VH with I57M, T58I, S99T, A103M, M106I, Y108F
VL: B1 VL
B13: 236# (antibody, human IgG1, kappa, V domains shown)
VH: B1 VH with I57M, S99C
VL: B1 VL
B14: 229# (antibody, human IgG1, kappa, V domains shown)
VH: B1 VH with I57M, T58I, A103M, M106I, Y108F
VL: B1 VL
B15: 8# (antibody, human IgG1, kappa, V domains shown)
VH: B1 VH with Y51F, A103T, Y108F
VL: B1 VL
notes: also called Sample # 8
B16: 244# (antibody, human IgG1, kappa, V domains shown)
VH: B1 VH with S99T, A103M, M106I, Y108F
VL: B1 VL with Q89G, T93R
B17: 230# (antibody, human IgG1, kappa, V domains shown)
VH: B1 VH with I57M, T58I, S99C, A103T, M106I, Y108F
VL: B1 VL
notes: also called Sample # 230
B18: 241# (antibody, human IgG1, kappa, V domains shown)
VH: B1 VH with I57M, S99C, A103M, M106I, Y108F
VL: B1 VL with Q89G, T93R
B19: 228# (antibody, human IgG1, kappa, V domains shown)
VH: B1 VH with I57M, S99C, A103M, M106I, Y108F
VL: B1 VL
notes: also called Sample # 228
B20: 227# (antibody, human IgG1, kappa, V domains shown)
VH: B1 VH with I57M, T58I
VL: B1 VL
notes: also called Sample # 227
B21: 239# (antibody, human IgG1, kappa, V domains shown)
VH: B1 VH with I57M, T58I, S99C
VL: B1 VL with Q89G, T93R
B22: 234# (antibody, human IgG1, kappa, V domains shown)
VH: B1 VH with I57M, S99C, A103M
VL: B1 VL
B23: 35# (antibody, human IgG1, kappa, V domains shown)
VH: B1 VH with A103M
VL: B1 VL
notes: also called Sample # 35
B24: 246# (antibody, human IgG1, kappa, V domains shown)
VH: B1 VH with I57M, T58I, S99T, A103T, M106I, Y108F
VL: B1 VL with Q89G, T93R
B25: 5# (antibody, human IgG1, kappa, V domains shown)
VH: B1 VH with Y51F, A103T
VL: B1 VL
notes: also called Sample # 5
B26: 245# (antibody, human IgG1, kappa, V domains shown)
VH: B1 VH with I57M, T58I, S99T, A103M
VL: B1 VL with Q89G, T93R
B27: 233# (antibody, human IgG1, kappa, V domains shown)
VH: B1 VH with I57M, T58I, S99T, A103T, M106I, Y108F
VL: B1 VL
B28: 45# (antibody, human IgG1, kappa, V domains shown)
VH: B1 VH with S99T, A103T
VL: B1 VL
notes: also called Sample # 45

How the values were obtained:
Experiment in all cases: SPR (BIAcore 3000), antibody on chip, sIL-6R analyte, 25 C
[1] = biological target: T1, sIL-6R (soluble IL-6 receptor; SBH Sciences) (human, UniProt P08887 20-365)
T1 construct: also called human IL-6R
T1 sequence: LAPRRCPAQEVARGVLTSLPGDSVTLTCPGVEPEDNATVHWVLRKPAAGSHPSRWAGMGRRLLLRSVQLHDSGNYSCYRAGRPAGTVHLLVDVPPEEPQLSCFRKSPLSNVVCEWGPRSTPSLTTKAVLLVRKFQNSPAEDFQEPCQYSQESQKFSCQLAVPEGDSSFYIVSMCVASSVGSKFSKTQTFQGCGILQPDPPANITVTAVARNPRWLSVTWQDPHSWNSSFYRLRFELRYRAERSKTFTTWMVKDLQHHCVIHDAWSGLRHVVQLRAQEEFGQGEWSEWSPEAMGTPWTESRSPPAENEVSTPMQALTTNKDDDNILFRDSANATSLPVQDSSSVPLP
Protocol: (§1) All SPR measurements were performed on a BIAcore 3000 instrument (GE Biosciences, Piscataway, N.J.). BIAcore Software-BIAcore 3000 Control Software V3.2 was used for the operation and control of the BIAcore 3000 instrument. BiaEvaluation Software V4.1 was used for the analysis of SPR data from the BIAcore 3000 instrument and data was plotted using Graph Pad Prism Software Version 5. […] The indicated antibodies were used as the ligand for the construction of the reference channel of the chip. […] Each sample was injected for 3 min at a flow rate of 30 μL/min to allow for binding to chip-bound antibody. Next, binding buffer without analyte was sent over the chip at the same flow rate to allow for dissociation of bound analyte. After 500s, remaining bound analyte was removed by injecting regeneration solution (1M Formic acid). Data was analyzed by using the Kinetics Wizard and the manual fitting programs that are both included with the BiaEvaluation Software V4.1.

[2] = biological target: T1, sIL-6R (soluble IL-6 receptor; SBH …); remark: listed apart in the source
Protocol: as §1

[3] = biological target: T1, sIL-6R (soluble IL-6 receptor; SBH …); remark: listed apart in the source
Protocol: as §1

Binder | Kd [1] [nM] | Relative Affinity [1] | koff [1] [s⁻¹] | kon [1] [M⁻¹ s⁻¹] | Kd [2] [nM] | Relative Affinity [2] | koff [2] [s⁻¹] | kon [2] [M⁻¹ s⁻¹] | Kd [3] [nM] | Relative Affinity [3] | koff [3] [s⁻¹] | kon [3] [M⁻¹ s⁻¹]
B1 | 0.273 | 4.9 fold vs 25 (Tocilizumab) | 5.8e-05 | 213000 | 0.435 | 3.9 fold vs 25 (Tocilizumab) | 8.87e-05 | 204000 | – | – | – | –
B2 | 0.0863 | 15.5 fold vs 25 (Tocilizumab) | 2.38e-05 | 275000 | 0.112 | 15.3 fold vs 25 (Tocilizumab) | 3.08e-05 | 276000 | – | – | – | –
B3 | 0.42 | 3.2 fold vs 25 (Tocilizumab) | 0.000102 | 243000 | – | – | – | – | – | – | – | –
B4 | – | – | – | – | – | – | – | – | 0.273 | 11.6 fold vs 25 (Tocilizumab) | 1.94e-05 | 71000
B5 | – | – | – | – | – | – | – | – | 0.319 | 9.9 fold vs 25 (Tocilizumab) | 4.81e-05 | 151000
B6 | – | – | – | – | – | – | – | – | 0.15 | 21.1 fold vs 25 (Tocilizumab) | 2.3e-05 | 154000
B7 | – | – | – | – | – | – | – | – | 0.111 | 28.5 fold vs 25 (Tocilizumab) | 1.5e-05 | 135000
B8 | 0.249 | 5.4 fold vs 25 (Tocilizumab) | 5.94e-05 | 239000 | 0.32 | 5.3 fold vs 25 (Tocilizumab) | 6.28e-05 | 196000 | – | – | – | –
B9 | 0.373 | 3.6 fold vs 25 (Tocilizumab) | 0.0001 | 269000 | – | – | – | – | – | – | – | –
B10 | 0.763 | 1.8 fold vs 25 (Tocilizumab) | 0.000177 | 232000 | – | – | – | – | – | – | – | –
B11 | – | – | – | – | – | – | – | – | 1.24 | 2.6 fold vs 25 (Tocilizumab) | 8.71e-05 | 70200
B12 | – | – | – | – | – | – | – | – | 0.297 | 10.6 fold vs 25 (Tocilizumab) | 3.81e-05 | 128000
B13 | – | – | – | – | – | – | – | – | 0.0829 | 38.1 fold vs 25 (Tocilizumab) | 1.53e-05 | 185000
B14 | – | – | – | – | – | – | – | – | 0.605 | 5.2 fold vs 25 (Tocilizumab) | 7.49e-05 | 124000
B15 | 0.893 | 1.5 fold vs 25 (Tocilizumab) | 0.000241 | 270000 | – | – | – | – | – | – | – | –
B16 | – | – | – | – | – | – | – | – | 0.166 | 19 fold vs 25 (Tocilizumab) | 2.33e-05 | 140000
B17 | – | – | – | – | – | – | – | – | 0.448 | 7.1 fold vs 25 (Tocilizumab) | 6.15e-05 | 137000
B18 | – | – | – | – | – | – | – | – | 0.202 | 15.6 fold vs 25 (Tocilizumab) | 3.61e-05 | 179000
B19 | – | – | – | – | – | – | – | – | 0.204 | 15.5 fold vs 25 (Tocilizumab) | 3.04e-05 | 149000
B20 | – | – | – | – | – | – | – | – | 0.477 | 6.6 fold vs 25 (Tocilizumab) | 6.9e-05 | 144000
B21 | – | – | – | – | – | – | – | – | 0.164 | 19.3 fold vs 25 (Tocilizumab) | 2.36e-05 | 144000
B22 | – | – | – | – | – | – | – | – | 0.37 | 8.5 fold vs 25 (Tocilizumab) | 5.69e-05 | 154000
B23 | – | – | – | – | 0.648 | 2.6 fold vs 25 (Tocilizumab) | 0.000146 | 225000 | – | – | – | –
B24 | – | – | – | – | – | – | – | – | 0.0789 | 40.1 fold vs 25 (Tocilizumab) | 9.86e-06 | 125000
B25 | 0.882 | 1.5 fold vs 25 (Tocilizumab) | 0.000234 | 266000 | – | – | – | – | – | – | – | –
B26 | – | – | – | – | – | – | – | – | 0.25 | 12.6 fold vs 25 (Tocilizumab) | 3.53e-05 | 141000
B27 | – | – | – | – | – | – | – | – | 0.387 | 8.2 fold vs 25 (Tocilizumab) | 5.75e-05 | 149000
B28 | – | – | – | – | 0.605 | 2.8 fold vs 25 (Tocilizumab) | 0.000106 | 175000 | – | – | – | –
